Experiment [1] deals with soluble human αd/CD18 leucine zipper heterodimer (human) (UniProt P05107). Put plainly: ELISA, CAM/Ig on αd/CD18LZ captured with 212D. (In general: In an ELISA, binding on a coated surface is turned into a signal by an enzyme label.)
In experiment [2] the target is LFA-1 leucine zipper fusion protein (UniProt P20701). Nature of the experiment: ELISA, CAM/Ig on captured integrin.

B1: VCAM-1/IgG1 fusion protein (seven extracellular immunoglobulin-like domains) (Fc fusion, UniProt P19320 25-698, looked up, not shown: a dimerising Fc or GST)
chain: FKIETTPESRYLAQIGDSVSLTCSTTGCESPFFSWRTQIDSPLNGKVTNEGTTSTLTMNPVSFGNEHSYLCTATCESRKLEKGIQVEIYSFPKDPEIHLSGPLEAGKPITVKCSVADVYPFDRLEIDLLKGDHLMKSQEFLEDADRKSLETKSLEVTFTPVIEDIGKVLVCRAKLHIDEMDSVPTVRQAVKELQVYISPKNTVISVNPSTKLQEGGSVTMTCSSEGLPAPEIFWSKKLDNGNLQHLSGNATLTLIAMRMEDSGIYVCEGVNLIGKNRKEVELIVQEKPFTVEISPGPRIAAQIGDSVMLTCSVMGCESPSFSWRTQIDSPLSGKVRSEGTNSTLTLSPVSFENEHSYLCTVTCGHKKLEKGIQVELYSFPRDPEIEMSGGLVNGSSVTVSCKVPSVYPLDRLEIELLKGETILENIEFLEDTDMKSLENKSLEMTFIPTIEDTGKALVCQAKLHIDDMEFEPKQRQSTQTLYVNVAPRDTTVLVSPSSILEEGSSVNMTCLSQGFPAPKILWSRQLPNGELQPLSENATLTLISTKMEDSGVYLCEGINQAGRSRKEVELIIQVTPKDIKLTAFPSESVKEGDTVIISCTCGNVPETWIILKKKAETGDTVLKSIDGAYTIRKAQLKDAGVYECESKNKVGSQLRSLTLDVQGRENNKDYFSPE
B1 registered a fold increase in signal above background in experiment [1] of 5 fold.

B2: ICAM-2/Ig (Fc fusion, part only; not given: Ig Fc portion, UniProt P13598 25-223, looked up, part only)
chain, part: KVFEVHVRPKKLAVEPKGSLEVNCSTTCNQPEVGGLETSLDKILLDEQAQWKHYLVSNISHDTVLQCHFTCSGKQESMNSNVSVYQPPRQVILTLQPTLVAVGKSFTIECRVPTVEPLDSLTLFLFRGNETLHYETFGKAAPAPQEATATFNSTADREDGHRNFSCLAVLDLMSRGGNIFHKHSAPKMLEIYEPVSDSQ
Turning to B2, the fold above background in experiment [2] came to 10 fold.

Source of the values: patent EP2182008A2.
